Test results taken from US20100159560.

Tests used:
[1] = molecular target: T1, synthetic peptide Gly-Pro-Ser-Phe-Arg-Ala-Pro-Asp-Ser
T1 chain: GPSFRAPDS

[2] = molecular target: T2, Streptomyces subtilisin inhibitor (SSI) derived from actinomycetes, P01006
T2 chain: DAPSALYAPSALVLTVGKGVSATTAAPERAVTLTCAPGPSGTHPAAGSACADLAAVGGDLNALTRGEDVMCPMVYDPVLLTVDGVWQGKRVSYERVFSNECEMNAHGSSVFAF

[3] = molecular target: T3, protransglutaminase of Streptoverticillium mobaraense IFO13819 (pro-MTG), P81453
T3 chain: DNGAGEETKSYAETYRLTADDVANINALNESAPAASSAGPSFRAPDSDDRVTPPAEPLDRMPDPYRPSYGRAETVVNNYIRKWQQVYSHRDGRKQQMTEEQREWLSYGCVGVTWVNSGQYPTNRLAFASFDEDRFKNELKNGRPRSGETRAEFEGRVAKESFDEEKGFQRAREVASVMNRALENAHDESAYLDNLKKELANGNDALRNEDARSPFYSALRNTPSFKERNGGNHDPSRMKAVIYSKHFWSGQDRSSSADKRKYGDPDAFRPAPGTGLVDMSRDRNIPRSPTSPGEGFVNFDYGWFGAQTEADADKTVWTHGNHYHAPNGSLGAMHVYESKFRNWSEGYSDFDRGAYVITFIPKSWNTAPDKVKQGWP

B1: neutral metalloprotease SVP35 from Streptoverticillium mobaraense IFO13819 (protein)
chain: GTGTSTYSGTVPLTTTKSGSQYQLNDGARGGHKTYDLNQGTSGTGSLFTNSTDTWGGGRQTAGVDAHYGAAVTWDFYKNVFGRNGIRNDGKAAYSRVHYGNSYVNAFWSDSCFCMTYGDGQNNKNPLTALDVAAHEMSHGVTAATAKLVYSGESGGLNEATSDIFGTAVEFYANNKTDVGDYLIGEKINIYGDGKPLRYMDKPSKDGKSKDSWYSGIGGVDVHYSSGPANHFFYLLSEGSGKKTINGVDYDSPTADGSKVTGIGRDKAQKIWYKALTTQFTSNTNYAKARTGTLNAAASLYGNNSAEYKAVAAAWSAINVK
- cleavage activity on the peptide substrate (HPLC, decrease of substrate) [1]: SVP35 was allowed to act on Gly-Pro-Ser-Phe-Arg-Ala-Pro-Asp-Ser (SEQ ID NO: 11) as a substrate
- relative activity (Gly-Pro-Ser-Phe-Arg-Ala-Pro-Asp-Ser cleavage activity, absence of compounds = 100%) [2]: strongly inhibited
- cleavage points (HPLC separation and sequencing of peptide fragments) (insulin B): cleaved before (at the N-terminal of) especially Phe, often Leu, sometimes Tyr, Trp, Ile, Val
- cleavage points (HPLC separation and sequencing of peptide fragments) [3]: cleaved before (at the N-terminal of) especially Phe, often Leu, sometimes Tyr, Trp, Ile, Val
- conversion of pro-MTG to mature MTG (SDS-PAGE time course; TG activity by the hydroxamate method), substrate:enzyme = 200:1 [3]: pro-MTGs were converted to the mature forms, and the produced MTGs were not reduced even after a long-term reaction
